Data reported in US20220361544A1, “Compositions Containing Brazzein” (The Coca-Cola Company, priority 2019, published 2022).
Read-outs that look alike come from different tables or passages of the source.

What was measured:
[1] = cited from earlier work
[2] = Sensory evaluation of 472 ppm RebM80 + Brazzein in citric base; format: in vivo, human; details: Brazzein 1-15 ppm in 472 ppm of RebM80
Source text: Example 6: Brazzein+Reb M (Taste Modifying Composition)

[3] = Sensory evaluation of 400 ppm A95 + Brazzein in citric base; format: in vivo, human; details: Brazzein 5 ppm to 20 ppm in 400 ppm of A95
Source text: Example 7: Brazzein+Reb A95 (Taste Modifying Composition)
“A95” refers to a steviol glycoside blend comprising primarily reb D and reb M. Methods of obtaining A95 are provided in WO 2017/059414, incorporated herein by reference.

[4] = cited from earlier work; remark: listed apart in the source
[5] = cited from earlier work; remark: listed apart in the source

In the case of “Brazzein: small, sweet-tasting protein from Pentadiplandra brazzeana Baillon; 53-amino acid minor form, SEQ ID NO: 1 (DKCKKVYENYPVSKCQLANQCNYDCKLDKHARSGECFYDEKRNLQCICDYCEY; listed as Pentadiplandra brazzeana)”, the Solubility [1] is given as greater than 50 mg/mL, the Water solubility [1] is given as greater than 50 mg/mL and the “Effect of Brazzein on taste property of 472 ppm RebM80” value [2] is given as “improves the taste property in 472 ppm of RebM80 such as, sour, less sweet, cover the bitterness and lingering. More mouthfeel, richness and fullbody”. For the same substance, the “Effect of Brazzein on taste of 400 ppm A95” value [3] was “can improve the mouthfeel, block bitterness and lingering in 400 ppm of A95”, the “Sweet taste after incubation” value ([4]; 80° C. for 4.5 h in the pH range of 2.5-8) was “remains” and the “Sweet taste after incubation” value ([4]; 98° C. for 2 h) was “remains”. For the same substance, the “Taste similarity to sucrose” value ([5]; compared with thaumatin) was “more similar to sucrose than that of thaumatin” and the “Sweetness of minor form relative to major form” value ([5]; minor form (des-pGlu1-brazzein) vs major form (pGlu-brazzein)) was “nearly twice the sweetness of the major form”.
